Test results from publication PMC3143649 (The Journal of Biological Chemistry, 2011).
Substitutions are numbered along the chain they refer to. Names may count otherwise. “And” between values parts separate entries of the source, which are not always exact repeats. Identical values can stand only once. Like-named read-outs stand apart in the source and are kept apart here.

Tests used:
[1] = target: the molecule itself; experiment: native MS
[2] = target: the molecule itself; experiment: atomic force microscopy
[3] = target: the molecule itself
[4] = target: the molecule itself; experiment: negative-stain electron microscopy
[5] = target: the molecule itself; experiment: cross-linking
[6] = target: Cys-less MtrE C21S (Neisseria gonorrhoeae) (UniProt Q51006); experiment: cross-linking

B1: MtrC α-helical coiled-coil hairpin domain (domain or fragment, Neisseria gonorrhoeae, UniProt P43505 103-183, looked up)
chain: IDSSTYEAGLESARAQLATAQATLAKADADLARYKPLVSADAISKQEYDAAVTAKRSAEASVKAAQAAIKSAGINLNRSRI
B1 was tested, and the “stoichiometry N” value [1] was 2 and the “stoichiometry N” value [2] was 6.

B2: MtrE, wild type (natural protein, Neisseria gonorrhoeae, UniProt Q51006 1-467, looked up)
chain: CTMIPQYEQPKVEVAETFQNDTSVSSIRAVDLGWHDYFADPRLQKLIDIALERNTSLRTAVLNSEIYRKQYMIERNNLLPTLAANANGSRQGSLSGGNVSSSYNVGLGAASYELDLFGRVRSSSEAALQGYFASVANRDAAHLSLIATVAKAYFNERYAEEAMSLAQRVLKTREETYNAVRIAVQGRRDFRRRPAPAEALIESAKADYAHAARSREQARNALATLINRPIPEDLPAGLPLDKQFFVEKLPAGLSSEVLLDRPDIRAAEHALKQANANIGAARAAFFPSIRLTGSVGTGSVELGGLFKSGTGVWAFAPSITLPIFTWGTNKANLDVAKLRQQAQIVAYESAVQSAFQDVANALAAREQLDKAYDALSKQSRASKEALRLVGLRYKHGVSGALDLLDAERSSYSAEGAALSAQLTRAENLADLYKALGGGLKRDTQTGK
In the case of B2, the “stoichiometry N” value [3] is reported as 3.

B3: MacA (natural protein, E. coli, UniProt P75830 1-371, looked up)
chain: MKKRKTVKKRYVIALVIVIAGLITLWRILNAPVPTYQTLIVRPGDLQQSVLATGKLDALRKVDVGAQVSGQLKTLSVAIGDKVKKDQLLGVIDPEQAENQIKEVEATLMELRAQRQQAEAELKLARVTYSRQQRLAQTKAVSQQDLDTAATEMAVKQAQIGTIDAQIKRNQASLDTAKTNLDYTRIVAPMAGEVTQITTLQGQTVIAAQQAPNILTLADMSAMLVKAQVSEADVIHLKPGQKAWFTVLGDPLTRYEGQIKDVLPTPEKVNDAIFYYARFEVPNPNGLLRLDMTAQVHIQLTDVKNVLTIPLSALGDPVGDNRYKVKLLRNGETREREVTIGARNDTDVEIVKGLEAGDEVVIGEAKPGAAQ
With B3 the “stoichiometry N” value [4] was 6.

B4: MtrD (natural protein, Neisseria gonorrhoeae, UniProt Q51073 1-1067, looked up)
chain: MAKFFIDRPIFAWVISIFIIAAGIFGIKSLPVSQYPSVAAPTITLHAIYPGASAQVMEGSVLSVIERNMNGVEGLDYMSTSADSSGSGSVSLTFTPDTDENLAQVEVQNKLSEVLRTLPATVQQYGVTVSKARSNFLMIVMLSSDVQSTEEMNDYAQRNVVPELQRIEGVGQVRLFGAQRAMRIWVDPKKLQNYNLSFADVGSALSAQNIQISAGSIGSLPAVRGQTVTATVTAQGQLGTAEEFGNVILRANTDGSNIYLKDVAKVGLGMEDYSSSTRLNGVNTTGMAVMLSNSGNAMATAKAVKERLAVLEKYFPQGMSWKTPYDTSKFVEISIEKVIHTLIEAMVLVFVVMYLFLQNIRYTLIPTIVVPISLLGGFAFISYMGMSINVLTMFAMILVIGIVVDDAIVVVENVERIMAGEGLPPKEATKKAMGQISGAVIGITAVLISVFVPLAMFSGAAGNIYKQFALTMASSIAFSAFLALTLTPALCATMLKTIPKGHHEEKKGFFGWFNKKFDSWTHGYEGRVAKVLRKTFRMMVVYIGLAVVGVFLFMRLPTSFLPTEDQGFVMVSVQLPAGATKERTDATLAQVTQLAKSIPEIENIITVSGFSFSGSGQNMAMGFAIFKDWNERTASGSDAVAVAGKLTGMMMGTLKDGFGIAVVPPPILELGNGSGLSINLQDRNNTGHTGIAGEGNELIQKMRASGLFDPSTVRAGGLEDSPQLKIDINRAAAAAQGISFADIRTALASALSSSYVSDFPNQGRLQRVMVQADEDARMQPADILNLTVPNKSGVAVPLSTIATVSWENGTEQSVRFNGYPSMKLSASPATGVSTGQAMEAVQKMVDELGGGYSFEWGGQSSEEAKGGSQTLILYGLAVAAVFLVLAALYESWSIPLAVILVIPLGLIGAAAGVTGRNLFEGLLGSVPSFANDIYFQVGFVTVMGLSAKNAILIIEFAKDLQAQGKSAVEAALEAARLRFRPIIMTSFAFILGVVPLYIAAGASSASQRAIGTTVFWGMLVGTLLSVFLVPLFYVVVRKFFKETAHEHEMAVRHASKAGITGSDDKQY
For B4, the “stoichiometry N” value [3] was 3.

B5: NT-MtrC D143C (domain or fragment, Neisseria gonorrhoeae, UniProt P43505 35-412, looked up)
chain: GQPAGREAPAPVVGVVTVHPQTVALTVELPGRLESLRTADVRAQVGGIIQKRLFQEGSYVRAGQPLYQIDSSTYEAGLESARAQLATAQATLAKADADLARYKPLVSACAISKQEYDAAVTAKRSAEASVKAAQAAIKSAGINLNRSRITAPISGFIGQSKVSEGTLLNAGDTTVLATIRQTNPMYVNVTQSASEVMKLRRQIAEGKLLAADGAIAVGIKFDDGTVYPEKGRLLFADPTVDESTGQITLRAAVSNDQNILMPGLYVRVLMDQVAADNAFIVPQQAVTRGAKDTVMIVNAQGGMEPREVTVAQQQGTNWIVTSGLKDGDKVVVEGISIAGMTGAKKVTPKEWAPSENQAAAPQAGVQTASEAKPASEAK
For B5, the “stoichiometry N” value [5] was 2 and the stoichiometry N (MtrC per MtrE) [6] was 2.

B6: NT-MtrC, the N-terminal truncated (Δ1–34) MtrC (domain or fragment, Neisseria gonorrhoeae, UniProt P43505 35-412, looked up)
chain: B5 chain with C109D
With B6 the “stoichiometry N” value [1] was 6 and 5.

B7: NT-MtrC E149C (domain or fragment, Neisseria gonorrhoeae, UniProt P43505 35-412, looked up)
chain: B5 chain with C109D, E115C
With B7 the “stoichiometry N” value [5] was 2 and the stoichiometry N (MtrC per MtrE) [6] was 2.
